Assay results: patent publication US20190060324A1, “POLYNUCLEOTIDE-POLY(DIOL) CONJUGATES, PROCESS OF PREPARATION AND USES THEREOF” (THE ROYAL INSTITUTION FOR THE ADVANCEMENT OF …, priority 2014, published 2019)

Assays:
[1] = tested on: HeLa cells (human cervical cancer); assay: MTS cytotoxicity assay; assay type: cell-based; conditions: quadruplicate, read-out: inhibitory concentration (IC50), MTS assay
Protocol: The cytotoxicity of micelles was assessed using the CellTiter96 kit from Promega according to the manufacturer's instructions. Briefly, HeLa cells (human cervical cancer) were seeded at a density of 10000 cells per well in a 96-well plate in DMEM media (Invitrogen) supplemented with 10% FBS and AB/AM. […] Cells were incubated for 24, 48, and 72 h in 5% CO2 at 37° C. After the incubation period, the MTS reagent was added to each well and further incubated for 2 h in 5% CO2 at 37° C. Subsequently, 96-well plates were allowed to equilibrate at room temperature and the absorbance was read at 490 nm using a BioTek Epoch micro-plate reader. All quantifications were done using GraphPad Prism 5 software.

[2] = tested on: primary B-CLL lymphocytes; assay: Cleaved caspase-3 apoptosis assay; assay type: cell-based, human; conditions: primary patient CLL cells, 24 and 48 h
Protocol: Primary B-CLL lymphocytes were maintained in RPMI complemented with 10% fetal bovine serum (FBS). BMS2 stromal cell line were maintained in Dulbecco's modified eagle medium (DMEM) supplemented with 10% FBS.BMS2 cells were plate at 70×10^4 cells/ml in 24 well plates before coculture with primary B-CLL lymphocytes and incubate at 37° C., 5% C02.
For apoptosis assays, 3×10^6 B-CLL lymphocytes were plated in the presence or absence of stromal cell (BMS2) and incubate 1 h at 37° C., 5% CO2. Cells were then treated with vehicle, micelle, BKM120, and micelle encapsulated BKM120 for 24 and 48 h.
Cells were harvested, washed with PBS then fixed 10 min with 1% paraformaldehyde. After washing, cells were permeabilized and nonspecific sites blocked in PBS containing 3% FBS and 0.01% triton X100. Cells were then incubated 1 h with an anti-caspase-3 FITC conjugated antibody then analyzed with a FACSCalibur flow cytometer. (See FIG. 16).

[3] = Dynamic light scattering of DNA-conjugate micelles (hydrodynamic radius, self-assembly); assay type: physicochemical; conditions: 25° C.; for self-assembly / scattering by DLS: 10 μM in magnesium containing (TAMg) buffer; for Single-stranded Rh (hydrodynamic radius by DLS): 10 μM in TAMg buffer; for Single-stranded Rh (hydrodynamic radius by DLS) / Double-stranded Rh (hydrodynamic radius by DLS): mean of at least triplicate ± SD
Protocol: The conjugates described herein can be further characterized with regard to their self-assembly behavior. To probe the self-assembly in solution, dynamic light scattering (DLS) was used to determine the presence, and hydrodynamic radius, of micellar aggregates.
Dynamic Light Scattering (DLS) experiments were carried out using a DynaPro™ Instrument from Wyatt Technology. A cumulants fit model was used to confirm the presence and determine the size of a monomodal population of micellar aggregates. Sterile water and TAMg buffer were filtered using a 0.45 μm nylon syringe filter before use for DLS sample preparation. All measurements were carried out at 25° C.
This size correlates with DNA-based spherical micelles and is consistent with the tight packing of the HE chains in a hydrophobic core with a charged corona made up of DNA.
To investigate the effect of block pattern on the amphiphilic self-assembly in solution, DLS measurements were carried out for the HE/HEG series. Samples were annealed in TAMg buffer at 10 μM, and measured at 25° C. […] Furthermore, the effect of the positioning of the blocks with respect to the oligonucleotide portion also appears to be a major factor in the self-assembly: the terminal HE6 results in micellization, whereas a central HE6 block prevents aggregation.

[4] = Fluorescence of encapsulated Nile Red; assay type: physicochemical; conditions: conjugate 10 μM in TAMg, excitation 535 nm
Protocol: DNA-conjugates (10 μM) in TAMg buffer (60 μL) were thermally annealed (95 to 4° C., 4 hours). The samples were transferred to glass vials and 1.5 μL of Nile Red solution ([…], acetone) was added, to give a final Nile Red concentration of 2.5 μM. The samples were vortexed briefly, sealed and incubated overnight at room temperature in the absence of light. Fluorescence spectra were recorded at room temperature in a 50 μL quartz cuvette using an excitation wavelength of 535 nm, and monitoring emission between 560 and 750 nm, with excitation and emission slit widths both set at 10 nm.
The sequence-specific self-assembly was also assessed using encapsulation of Nile Red (FIG. 5). In this case a small increase in fluorescence was seen as the block size increased from one to three HE units, consistent with a degree of intramolecular collapse of adjacent HE units, generating progressively larger hydrophobic domains as the block size increases, akin to beads on a string. […] A small, but repeatedly measurable, […] of the maximum emission from the bola-amphiphile (640 nm) with respect to the linear amphiphile (645 nm) was also observed, which is indicative of Nile Red in a more polar environment P. Greenspan, S. D. Fowler, J. Lipid Res. 1985, 26, 781-789). […]

[5] = tested on: complement strand (Acomp); assay: Thermal denaturation of duplexes with complement strand by UV absorption; native PAGE; assay type: physicochemical; conditions: between DNA and HE12-DNA, duplex with Acomp 2.5 μM in TAMg
Protocol: The hybridization of the DNA amphiphiles to their complement strands was confirmed by measurement of the thermal denaturation of the duplexes by UV absorption. For each experiment equimolar amounts of DNA amphiphile and complement strand (Acomp, see Table 1) were combined in TAMg buffer to give a final volume of 150 μL with a duplex concentration of 2.5 μM. Samples were thermally annealed (95 to 4° C., 4 hours) before transfer to a quartz cuvette. Absorbance at 260 nm was monitored over the appropriate temperature range. Typical sigmoidal melting curves were obtained for the hybridization of the complementary strand Acomp to DNA control, discrete (HE-HEG)6-DNA and HE12-DNA micelles. […] Native Polyacrylamide Gel Electrophoresis (PAGE) was carried out at room temperature for 2 hours at a constant voltage of 250V. Sample loading was 0.01 OD260 DNA per lane. Single-stranded samples were annealed (95 to 4° C., 4 hours) prior to loading on the gel to promote uniform assembly. Double-stranded samples were similarly annealed (with Acomp, see Table 1) to provide 25 μL of 10 μM duplex in 1×TAMg. The DNA bands were visualized by incubation with GelRedTM. Thermal denaturation and gel electrophoresis concluded that all of the HEx-DNA molecules retained their ability to hybridize to a complementary DNA strand, highlighting the orthogonal nature of these differing modes of intermolecular self-assembly. […]

[6] = BKM120 loading of HE12-DNA micelles by RP-HPLC and UV-Vis; assay type: physicochemical; conditions: HPLC peak areas, standard curves
Protocol: BKM120 was prepared as a 10 mM working solution in chloroform. Loading of the structures was achieved by adding 20 μL of BKM120 to a glass vial, followed by solvent evaporation in open air to achieve a thin drug film. HE12-DNA micelles were pre-assembled in 1×TAMg (100 μL at […]) and subsequently added to the drug film. The final solution was 100 μL with excess BKM120 (2 mM). The mixture was vortexed heavily to allow re-suspension of the drug molecules, and was incubated overnight at room temperature. Alternatively, drug loading could also be obtained by a different method. […]
RP-HPLC and UV-Vis spectroscopy were used to determine the amount of BKM120 loaded in the DNA micelles, For HPLC, 60 μL of the purified supernatant was injected into a Hamilton PRP-1 5 μm 100 Å 2.1×150 mm column. […] The products were also detected using a drug-only channel at 320 nm (BKM 120 maximum absorption peak).
For UV-Vis spectroscopy experiments, 20 μL of the purified supernatant was mixed with 80 μL of DMSO, and the absorbance (200 nm-500 nm) was measured. The presence of BKM120 was monitored by the absorbance at 320 nm using a Biotek Synergy HT well-plate spectrometer. […]
The amount of incorporated BKM 120 was calculated by measuring HPLC peak areas of BKM 120 and DNA. […]

| Molecule | self-assembly / scattering by DLS [3] | Single-stranded Rh (hydrodynamic radius by DLS) [3] [nm] | Double-stranded Rh (hydrodynamic radius by DLS) [3] [nm] | further results |
| --- | --- | --- | --- | --- |
| Nc1cc(C(F)(F)F)c(-c2cc(N3CCOCC3)nc(N3CCOCC3)n2)cn1 [BKM120] |  |  |  | IC50 [1]: 2000 nM; amount of caspase (cleaved caspase-3) [2]: same amount |
| (HE2-HEG2)3-DNA: DDHHDDHHDDHHTTTTTCAGTTGACCATATA; D dodecane-diol, H hexaethyloxy glycol residues (dodecane-diol and hexaethylene glycol units conjugated, chemistry not fully specified) | did not exhibit self-assembly |  |  |  |
| (HE3-HEG3)2-DNA: DDDHHHDDDHHHTTTTTCAGTTGACCATATA; D dodecane-diol, H hexaethyloxy glycol residues (dodecane-diol and hexaethylene glycol units conjugated, chemistry not fully specified) | did not exhibit self-assembly |  |  |  |
| (HE-HEG)6-DNA: DHDHDHDHDHDHTTTTTCAGTTGACCATATA; D dodecane-diol, H hexaethyloxy glycol residues (dodecane-diol and hexaethylene glycol units conjugated, chemistry not fully specified) | did not exhibit self-assembly |  |  |  |
| HE6-DNA: DDDDDDTTTTTCAGTTGACCATATA; D = residue from DMT-dodecane-diol amidite (dodecane-diol (HE) units conjugated, chemistry not fully specified) | strong scattering | 6.5±0.4 | 5.6 ± 0.1 | Single-stranded Rh (hydrodynamic radius by DLS) ([3]; listed as HE6): 6.5 ± 0.4 nm |
| HE6-HEG6-DNA: DDDDDDHHHHHHTTTTTCAGTTGACCATATA; D dodecane-diol, H hexaethyloxy glycol residues (dodecane-diol and hexaethylene glycol units conjugated, chemistry not fully specified) | strong scattering | 9.7±0.9 | 10.0 ± 0.2 | Single-stranded Rh (hydrodynamic radius by DLS) ([3]; listed as HE6-HEG6): 9.7 ± 0.1 nm; maximum emission of encapsulated Nile Red [4]: 645 nm |
| HE12-DNA: DDDDDDDDDDDDTTTTTCAGTTGACCATATA; D = residue from DMT-dodecane-diol amidite (dodecane-diol (HE) units conjugated, chemistry not fully specified) |  | 11.3±0.1 | 11.3 ± 0.1 | Single-stranded Rh (hydrodynamic radius by DLS) ([3]; listed as HE12): 11.3 ± 0.7 nm; change in melting temperature [5]: 3 °C; BKM120 molecules incorporated per HE12-DNA conjugate unit [6]: 8 |
| HEG6-HE6-DNA: HHHHHHDDDDDDTTTTTCAGTTGACCATATA; D dodecane-diol, H hexaethyloxy glycol residues (dodecane-diol and hexaethylene glycol units conjugated, chemistry not fully specified) |  |  |  | maximum emission of encapsulated Nile Red [4]: 640 nm |
